Measured values: US20090099029

T1: Bovine, dephosphorylated, Myelin Basic Protein (MBP), P02687
T1 chain: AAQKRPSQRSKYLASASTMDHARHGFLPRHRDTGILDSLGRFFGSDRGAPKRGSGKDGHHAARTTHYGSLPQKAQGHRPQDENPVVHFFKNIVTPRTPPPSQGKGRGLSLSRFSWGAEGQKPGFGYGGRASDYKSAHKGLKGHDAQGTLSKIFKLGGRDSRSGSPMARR


Target: T1, Bovine, dephosphorylated, Myelin Basic …

Protein	MBP Kinase Activity
IGF1R (protein) RKRNNSRLGNGVLYASVNPEYFSAADVYVPDEWEVAREKITMSRELGQGSFGMVYEGVAKGVVKDEPETRVAIKTVNEAASMRERIEFLNEASVMKEFNCHHVVRLLGVVSQGQPTLVIMELMTRGDLKSYLRSLRPEMENNPVLAPPSLSKMIQMAGEIADGMAYLNANKFVHRDLAARNCMVAEDFTVKIGDFGMTRDIYETDYYRKGGKGLLPVRWMSPESLKDGVFTTYSDVWSFGVVLWEIATLAEQPYQGLSNEQVLRFVMEGGLLDKPDNCPDMLFELMRMCWQYNPKMRPSFLEIISSIKEEMEPGFREVSFYYSEENKLPEPEELDLEPENMESVPLDPSASSSSLPLPDRHSGHKAENGPGPGVLVLRASFDERQPYAHMNGGRKNERALPLPQSSTC	Strong
KIT (protein) TYKYLQKPMYEVQWKVVEEINGNNYVYIDPTQLPYDHKWEFPRNRLSFGKTLGAGAFGKVVEATAYGLIKSDAAMTVAVKMLKPSAHLTEREALMSELKVLSYLGNHMNIVNLLGACTIGGPTLVITEYCCYGDLLNFLRRKRDSFICSKQEDHAEAALYKNLLHSKESSCSDSTNEYMDMKPGVSYVVPTKADKRRSVRIGSYIERDVTPAIMEDDELALDLEDLLSFSYQVAKGMAFLASKNCIHRDLAARNILLTHGRITKICDFGLARDIKNDSNYVVKGNARLPVKWMAPESIFNCVYTFESDVWSYGIFLWELFSLGSSPYPGMPVDSKFYKMIKEGFRMLSPEHAPAEMYDIMKTCWDADPLKRPTFKQIVQLIEKQISESTNHIYSNLANCSPNRQKPVVDHSVRINSVGSTASSSQPLLVHDDV	Negative
FLT3 (protein) HKYKKQFRYESQLQMVQVTGSSDNEYFYVDFREYEYDLKWEFPRENLEFGKVLGSGAFGKVMNATAYGISKTGVSIQVAVKMLKEKADSSEREALMSELKMMTQLGSHENIVNLLGACTLSGPIYLIFEYCCYGDLLNYLRSKREKFHRTWTEIFKEHNFSFYPTFQSHPNSSMPGSREVQIHPDSDQISGLHGNSFHSEDEIEYENQKRLEEEEDLNVLTFEDLLCFAYQVAKGMEFLEFKSCVHRDLAARNVLVTHGKVVKICDFGLARDIMSDSNYVVRGNARLPVKWMAPESLFEGIYTIKSDVWSYGILLWEIFSLGVNPYPGIPVDANFYKLIQNGFKMDQPFYATEEIYIIMQSCWAFDSRKRPSFPNLTSFLGCQLADAEEAMYQNVDGRVSECPHTYQNRRPFSREMDLGLLSPQAQVEDS	Strong
INSRR (protein) YGKKRNRTLYASVNPEYFSASDMYVPDEWEVPREQISIIRELGQGSFGMVYEGLARGLEAGEESTPVALKTVNELASPRECIEFLKEASVMKAFKCHHVVRLLGVVSQGQPTLVIMELMTRGDLKSHLRSLRPEAENNPGLPQPALGEMIQMAGEIADGMAYLAANKFVHRDLAARNCMVSQDFTVKIGDFGMTRDVYETDYYRKGGKGLLPVRWMAPESLKDGIFTTHSDVWSFGVVLWEIVTLAEQPYQGLSNEQVLKFVMDGGVLEELEGCPLQLQELMSRCWQPNPRLRPSFTHILDSIQEELRPSFRLLSFYYSPECRGARGSLPTTDAEPDSSPTPRDCSPQNGGPGH	Negative
FLT1(VEGFR1) (protein) RKMKRSSSEIKTDYLSIIMDPDEVPLDEQCERLPYDASKWEFARERLKLGKSLGRGAFGKVVQASAFGIKKSPTCRTVAVKMLKEGATASEYKALMTELKILTHIGHHLNVVNLLGACTKQGGPLMVIVEYCKYGNLSNYLKSKRDLFFLNKDAALHMEPKKEKMEPGLEQGKKPRLDSVTSSESFASSGFQEDKSLSDVEEEEDSDGFYKEPITMEDLISYSFQVARGMEFLSSRKCIHRDLAARNILLSENNVVKICDFGLARDIYKNPDYVRKGDTRLPLKWMAPESIFDKIYSTKSDVWSYGVLLWEIFSLGGSPYPGVQMDEDFCSRLREGMRMRAPEYSTPEIYQIMLDCWHRDPKERPRFAELVEKLGDLLQANVQQDGKDYIPINAILTGNSGFTYSTPAFSEDFFKESISAPKFNSGSSDDVRYVNAFKFMSLERIKTFEELLPNATSMFDDYQGDSSTLLASPMLKRFTWTDSKPKASLKIDLRVTSKSKESGLSDVSRPSFCHSSCGHVSEGKRRFTYDHAELERKIACCSPPPDYNSVVLYSTPPI	Strong
